The values that follow come from article PMC3646756.

For assay [1], the target named is recombinant mouse FcRn (mouse) (UniProt Q61559).
In assay [2] the target is recombinant human FcRn (human) (UniProt P55899).
For assay [3], the target named is hIgG1 Fc variant v2 (M252W/N434W) (human). Description: SPR; KD at pH 6.0 (Table 1); set-up told only for pH 7.0: antibody variant captured on Protein L on a CM4 chip, FcRn injected. In general terms: SPR reads the build-up and loss of mass on a sensor chip optically.
In assay [4] the target is hIgG1 Fc variant v4 (M252Y/N286E/N434Y) (human). The description is as above.
Assay [5] concerns the target hIgG1 Fc variant v6 (M252Y/V308P/N434Y) (human). The assay is described as above.
Assay [6] has as its target hIgG1 Fc variant v5 (M252Y/T307Q/Q311A/N434Y) (human). The assay is described as above.
The target in assay [7] is hIgG1 Fc variant v3 (M252Y/N434Y) (human). The description is as above.
For assay [8], the target named is hIgG1 (anti-hsIL-6R antibody with wild-type human IgG1 constant region) (human). The description is as above.
In assay [9] the target is hIgG1 Fc variant v2 (M252W/N434W) (human). Description: SPR; Biacore T200; antibody variant captured on Protein L immobilised on a CM4 chip, FcRn injected over the flow cell; pH 7.0.
The target in assay [10] is hIgG1 Fc variant v6 (M252Y/V308P/N434Y) (human). Described as above.
For assay [11], the target named is hIgG1 Fc variant v5 (M252Y/T307Q/Q311A/N434Y) (human). The assay is described as above.
Assay [12] deals with hIgG1 Fc variant v3 (M252Y/N434Y) (human). The assay is described as above.
In assay [13] the target is hIgG1 (anti-hsIL-6R antibody with wild-type human IgG1 constant region) (human). The assay is described as above.
Assay [14] deals with hIgG1 Fc variant v1 (I332V/N434Y) (human). Kind of assay: SPR; KD at pH 6.0 (Table 1); set-up told only for pH 7.0: antibody variant captured on Protein L on a CM4 chip, FcRn injected.
The target is the same in assay [15]. Description: SPR; Biacore T200; antibody variant captured on Protein L immobilised on a CM4 chip, FcRn injected over the flow cell; pH 7.0.

Consider “hIgG1 Fc variant v1 (I332V/N434Y) (antibody)”, for which, in [1], the total hsIL-6R plasma concentration after PH-v1, 1 mg/kg i.v., normal mice steady-state model (reduction below the baseline) was found to be 150 fold.

With “hIgG1 Fc variant v4 (M252Y/N286E/N434Y) (antibody)”, the fold decrease in total hsIL-6R plasma concentration after PH-v4 against NPH-IgG1, 1 mg/kg i.v. with 1 g/kg hIgG, hFcRn-Tgm steady-state model in [2] worked out at 50 fold.

“recombinant human FcRn (from UniProt P55899 24-365) (receptor)”: the Kd (as a rule, the equilibrium constant for the complex coming apart) in assay [3] stood at 6 nM; in [4] it was 8 nM; in [5], 3 nM; in [6], 5 nM; in assay [7], 15 nM; in assay [8] it was 1380 nM. Besides, the Kd in [9] amounted to 155 nM; in assay [10] it was 35 nM; in assay [11], 77 nM; in assay [12], 288 nM; in assay [13], 88000 nM.

With “recombinant mouse FcRn (from UniProt Q61559 22-365) (receptor)”, the Kd in [8] came to 237 nM; in [14], 3 nM; in assay [13], 3920 nM; in assay [15] it was 52 nM.
